Data from article PMC8361300.
pKd: −log10 of the molar value. Each block holds one substance with its values, some of them ahead of it.

Key:
[1] = molecular target: Nucleobindin-2 from Gallus gallus (ggNucb2) (Gallus gallus); assay: AUC; sedimentation velocity, 50,000 rpm, 20 °C, buffer C (20 mM Tris-HCl, 150 mM NaCl, pH 7.5) with 100 µM ZnCl2 (also 200 and 300 µM); protein 0.5, 0.75 and 1.0 mg/ml; c(s) model
[2] = molecular target: Nucleobindin-2 from Gallus gallus (ggNucb2) (Gallus gallus); assay: SAXS; protein 3.5 mg/ml with 5 mM EDTA, 10 mM Ca2+, 10 mM Mg2+ or 100 µM Zn2+; molecular mass from I(0) against BSA
[3] = molecular target: Nucleobindin-2 from Gallus gallus (Gallus gallus); assay: ITC; Ca2+ (4000 µM) titrated into ggNucb2 (50 µM), 25 °C, 20 mM HEPES, 150 mM NaCl, pH 7.5; broad range fit to the AA BB model with ligand-mediated dimerization ((A + A) + B + B to (AA)BB) in SEDPHAT; constant of the step monomers to dimer
[4] = molecular target: Nucleobindin-2 from Homo sapiens (hsNucb2) (Homo sapiens); assay: AUC; sedimentation velocity, 50,000 rpm, 20 °C, buffer C (20 mM Tris-HCl, 150 mM NaCl, pH 7.5) with 5 mM EDTA (apo); protein 0.5, 0.75 and 1.0 mg/ml; c(s) model
[5] = molecular target: Nucleobindin-2 from Homo sapiens (hsNucb2) (Homo sapiens); assay: SAXS; protein 3.5 mg/ml with 5 mM EDTA, 10 mM Ca2+, 10 mM Mg2+ or 100 µM Zn2+; molecular mass from I(0) against BSA

stoichiometry N [1]: > 2
stoichiometry N [2]: 2
Substance: Nucleobindin-2 from Gallus gallus (ggNucb2) (natural protein)

pKd [3]: 7.80
Substance: Nucleobindin-2 from Gallus gallus (natural protein)

stoichiometry N [4]: 2
stoichiometry N [5]: 2
Substance: Nucleobindin-2 from Homo sapiens (hsNucb2) (natural protein)
